Measured values from paper PMC6426777.

What was measured:
[1] = target: recombinant C1q Lys^A200Asp-Lys^A201Asp mutant (human) (UniProt P02745); assay: SPR; Biacore 3000, 25°C; C1q variants immobilised on CM5 chips by amine coupling; partners injected at 20 μl/min in 50 mM Tris-HCl, 150 mM NaCl, 2 mM CaCl2, 0.005% surfactant P20, pH 7.4; BSA reference surface; global fit to 1:1 Langmuir model; apparent KD = kd/ka
[2] = target: recombinant C1q Lys^C170Glu mutant (human) (UniProt P02745); assay: as above
Sequence of recombinant C1q Lys^C170Glu mutant (human) (P02745 23-245, change not shown, chain 1 of 3): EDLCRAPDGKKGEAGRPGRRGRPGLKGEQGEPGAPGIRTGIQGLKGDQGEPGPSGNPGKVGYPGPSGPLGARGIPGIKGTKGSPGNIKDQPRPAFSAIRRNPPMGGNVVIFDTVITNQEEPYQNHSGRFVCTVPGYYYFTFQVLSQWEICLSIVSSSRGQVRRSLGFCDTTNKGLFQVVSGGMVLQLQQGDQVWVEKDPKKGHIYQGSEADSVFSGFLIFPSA
Sequence of recombinant C1q Lys^C170Glu mutant (human) (P02746 28-253, change not shown, chain 2 of 3, further chain): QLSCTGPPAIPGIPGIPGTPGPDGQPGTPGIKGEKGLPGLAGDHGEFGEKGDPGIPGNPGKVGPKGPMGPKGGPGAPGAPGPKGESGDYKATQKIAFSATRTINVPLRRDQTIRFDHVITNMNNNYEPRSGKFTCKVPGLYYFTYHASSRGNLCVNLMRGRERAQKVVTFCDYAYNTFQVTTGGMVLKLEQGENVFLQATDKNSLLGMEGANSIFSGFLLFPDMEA
Sequence of recombinant C1q Lys^C170Glu mutant (human) (P02747 other isoform, or with tags, fused parts or gaps mutant, chain 3 of 3, further chain): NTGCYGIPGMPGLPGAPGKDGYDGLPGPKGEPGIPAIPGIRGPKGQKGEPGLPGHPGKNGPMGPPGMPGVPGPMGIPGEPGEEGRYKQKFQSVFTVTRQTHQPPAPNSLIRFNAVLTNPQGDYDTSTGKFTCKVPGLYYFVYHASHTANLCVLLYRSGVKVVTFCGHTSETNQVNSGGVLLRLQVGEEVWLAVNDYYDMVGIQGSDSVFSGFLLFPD

[3] = target: recombinant C1q Tyr^B175Leu mutant (human) (UniProt P02745); assay: as above
Sequence of recombinant C1q Tyr^B175Leu mutant (human) (P02745 23-245, change not shown, chain 1 of 3): as the sequence (P02745 23-245, change not shown, chain 1 of 3) above
Sequence of recombinant C1q Tyr^B175Leu mutant (human) (P02746 other isoform, or with tags, fused parts or gaps mutant, chain 2 of 3, further chain): as the sequence (P02746 28-253, change not shown, chain 2 of 3, further chain) above, with Y175L counted along it
Sequence of recombinant C1q Tyr^B175Leu mutant (human) (P02747 29-245, change not shown, chain 3 of 3, further chain): as the sequence (P02747 other isoform, or with tags, fused parts or gaps mutant, chain 3 of 3, further chain) above, with E170K counted along it

[4] = target: recombinant wild-type C1q (human) (UniProt P02745); assay: as above
Sequence of recombinant wild-type C1q (human) (P02745 23-245, chain 1 of 3): as the sequence (P02745 23-245, change not shown, chain 1 of 3) above
Sequence of recombinant wild-type C1q (human) (P02746 28-253, chain 2 of 3, further chain): as the sequence (P02746 28-253, change not shown, chain 2 of 3, further chain) above
Sequence of recombinant wild-type C1q (human) (P02747 29-245, chain 3 of 3, further chain): as the sequence (P02747 other isoform, or with tags, fused parts or gaps mutant, chain 3 of 3, further chain) above, with E170K counted along it

[5] = target: recombinant human PTX3 (D at position 48) from CHO cells (human) (UniProt P26022)
[6] = target: recombinant human PTX3 A48 allelic variant from HEK293 (human) (UniProt P26022); assay: non-reducing SDS-PAGE; purified PTX3 on Tris acetate 3-8% gels without dithiothreitol, silver stain; disulfide-linked oligomers
[7] = target: recombinant human PTX3 D48 allelic variant from HEK293 (human) (UniProt P26022); assay: as above

Sequence of recombinant C1q Lys^A200Asp-Lys^A201Asp mutant (human) (P02745 other isoform, or with tags, fused parts or gaps mutant, chain 1 of 3): as the sequence (P02745 23-245, change not shown, chain 1 of 3) above, with K200D, K201D counted along it
Sequence of recombinant C1q Lys^A200Asp-Lys^A201Asp mutant (human) (P02746 28-253, stated change not applied, chain 2 of 3, further chain): as the sequence (P02746 28-253, change not shown, chain 2 of 3, further chain) above
Sequence of recombinant C1q Lys^A200Asp-Lys^A201Asp mutant (human) (P02747 29-245, stated change not applied, chain 3 of 3, further chain): as the sequence (P02747 other isoform, or with tags, fused parts or gaps mutant, chain 3 of 3, further chain) above, with E170K counted along it

Question: What does the source list for human IgM (antibody)?
Answer: Kd [1]: 3.31 nM; koff [1]: 0.00206 s⁻¹; kon [1]: 717000 M⁻¹ s⁻¹; Kd [2]: 2.48 nM; koff [2]: 0.00167 s⁻¹; kon [2]: 681000 M⁻¹ s⁻¹; Kd [3]: 0.892 nM; koff [3]: 0.00131 s⁻¹; kon [3]: 1.47e+06 M⁻¹ s⁻¹; Kd [4]: 1.92 nM; koff [4]: 0.00154 s⁻¹; kon [4]: 919000 M⁻¹ s⁻¹

Question: Which results are given for “recombinant C1q Arg^B108Asp-Arg^B109Glu mutant (from UniProt P02745 23-245; P02746 28-253; P02747 29-245) (complex)”?
Answer: IgM-dependent complement activation: C4b deposition in IgM-coated wells, C1q-depleted serum reconstituted with the C1q variant (4 μg/ml) (% of the signal obtained with C1qWT) (human IgM (human)): 9; PTX3-dependent complement activation: C4b deposition in PTX3-coated wells, C1q-depleted serum reconstituted with the C1q variant (4 μg/ml) (% of the signal obtained with C1qWT) [5]: 30

Question: Which PTX3-dependent complement activation: C4b deposition in PTX3-coated wells, C1q-depleted serum reconstituted with the C1q variant (4 μg/ml) [5] does the source give for “recombinant C1q Lys^A200Asp-Lys^A201Asp mutant (from UniProt P02745 23-245; P02746 28-253; P02747 29-245) (complex)” here?
Answer: 163 % of C1qWT

Question: How did the IgM-dependent complement activation: C4b deposition in IgM-coated wells, C1q-depleted serum reconstituted with the C1q variant (4 μg/ml) (% of the C1qWT value) (human IgM (human)) turn out when “recombinant C1q Tyr^B175Leu mutant (from UniProt P02745 23-245; P02746 28-253; P02747 29-245) (complex)” was run?
Answer: 61.4

Question: What about the PTX3-dependent complement activation: C4b deposition in PTX3-coated wells, C1q-depleted serum reconstituted with the C1q variant (4 μg/ml) (% of the C1qWT value) [5] of the same substance?
Answer: 44.5

Question: For “recombinant C1s-C1r-C1r-C1s tetramer (complex)”, which Kd [2] is on record?
Answer: 5.29 nM

Question: What about the koff [2] of the same substance?
Answer: 0.00256 s⁻¹

Question: And the kon [2]?
Answer: 486000 M⁻¹ s⁻¹

Question: What about the Kd [3] of the same substance?
Answer: 6.75 nM

Question: And the koff [3]?
Answer: 0.00297 s⁻¹

Question: What about the kon [3] of the same substance?
Answer: 440000 M⁻¹ s⁻¹

Question: What about the Kd [4] of the same substance?
Answer: 6.36 nM

Question: And the koff [4]?
Answer: 0.00288 s⁻¹

Question: What about the kon [4] of the same substance?
Answer: 435000 M⁻¹ s⁻¹

Question: Which Kd [1] does the source give for “recombinant human PTX3 (D at position 48) from CHO cells (from UniProt P26022 18-381) (natural protein)” here?
Answer: 7.84 nM

Question: And the koff [1]?
Answer: 0.000634 s⁻¹

Question: What about the kon [1] of the same substance?
Answer: 98300 M⁻¹ s⁻¹

Question: And the Kd [2]?
Answer: 10.9 nM

Question: And the koff [2]?
Answer: 0.00152 s⁻¹

Question: What about the kon [2] of the same substance?
Answer: 140000 M⁻¹ s⁻¹

Question: And the Kd [4]?
Answer: 5.65 nM

Question: What about the koff [4] of the same substance?
Answer: 0.000859 s⁻¹

Question: And the kon [4]?
Answer: 155000 M⁻¹ s⁻¹

Question: With “recombinant human PTX3 A48 allelic variant from HEK293 (from UniProt P26022 18-381) (natural protein)” as the substance, how does the stoichiometry N [6] read?
Answer: 8

Question: Which stoichiometry N [7] does the source give for “recombinant human PTX3 D48 allelic variant from HEK293 (from UniProt P26022 18-381) (natural protein)” here?
Answer: 8
